The results in this text go back to patent US7067268.

No end group written: not given here.

The target in assay [1] is P2L-2Ca. In words: competitive EIA on P2L-2C; ratio of the antigen concentrations giving (B/B0)=0.5.
In assay [2] the target is P2L-1Ca. In words: competitive EIA: unlabeled antigen varied against HRP-labeled 19P2 ligand (17-31) on P2L-1C.
Assay [3] addresses P2L-2Ca. In words: competitive EIA: unlabeled antigen varied against HRP-labeled 19P2 ligand (17-31) on P2L-2C.
Assay [4] deals with P2L-1Ta. As to the kind of experiment: competitive EIA: unlabeled antigen varied against HRP-labeled 19P2 ligand (12-25) on P2L-1Ta.
Assay [5] concerns the target P2L-3Ta. In words: competitive EIA: unlabeled antigen varied against HRP-labeled 19P2 ligand (12-25) on P2L-3Ta.
Assay [6] addresses these antibodies (P2L-1Ta, P2L-3Ta, P2L-2Ta and P2L-4Ta). In words: competitive EIA against HRP-labeled 19P2 ligand (12-25); P2L-1Ta, P2L-3Ta, P2L-2Ta, P2L-4Ta (FIG. 9).
The target in assay [7] is P2L-1Ta. In words: competitive EIA on P2L-1Ta; FIG. 7(a).
For assay [8], the target named is P2L-3Ta. As to the kind of experiment: competitive EIA against HRP-labeled 19P2 ligand (12-25); 'higher' as printed, though 25 nM against 4 nM points to lower.
Assay [9] has as its target P2L-3Ta. As to the kind of experiment: competitive EIA against HRP-labeled 19P2 ligand (12-25); sentence prints 'P2L-1Ta' but stands in the P2L-3Ta passage and cites FIG. 7(b).

Broadly, the IC50 is the concentration that gives 50% inhibition. The low end stands for inhibition by little substance, the high end for a need for much substance. Consider SRTHRHSMEIRTPDINPAWYASRGIRPVGRX (C-terminal amide) [Human 19P2 ligand (1-31)], for which the fold of the reactivity against bovine 19P2 ligand (1-31) in assay [1] was 33 fold. For the same molecule, the fold of the reactivity against rat 19P2 ligand (1-31) in assay [1] worked out at 130 fold. Besides, the IC50 in assay [2] was 3 nM; in [3], 1.5 nM; in assay [4], 4 nM; in assay [5], 4 nM; in assay [6], 3 to 50 nM. In assay [4], this molecule came in with an antigen concentration detected, (B/B0)=0.9 of 0.1 nM.

Turning to SRAHQHSMETRTPDINPAWYTGRGIRPVGRF-NH2 [Rat 19P2 ligand (1-31)], the fold of the reactivity against human 19P2 ligand (1-31) turned out to be 4 fold in assay [7] and 6 fold in assay [8]. Moreover, the figures for the IC50 in assay [3], in [4] and in assay [9] were 200 nM, 1 nM and 25 nM, respectively.

In assay [4], TPDINPAWYASRGIRPVGRF-NH2 [Human 19P2 ligand (12-31)] yielded an IC50 of 4 nM. In [9], the IC50 amounted to 7 nM and the fold of the reactivity against human 19P2 ligand (1-31) was 0.5 fold.

The molecule SRAHQHSMEIRTPDINPAWYAGRGIRPVGRF-NH2 [Bovine 19P2 ligand (1-31)] came in with an IC50 in [3] of 50 nM.
